According to article PMC11569197:

Assays:
[1] = target: cone-specific G-protein transducin alpha subunit employed as a Gtα/Giα chimera, non-myristoylated (European robin); test: SPR; Biacore 3000, CM5 chip, amine coupling; Gtα/Giα immobilised, ErCry4a 5-100 nM (and 500 nM) injected; global fit with a two-state-reaction model; 10 mM HEPES/NaOH pH 7.4, 150 mM NaCl, 10 mM MgCl2, 0.005% Tween-20, 3.4 mM EDTA
[2] = target: Gtα-EYFP (cone transducin alpha subunit, GNAT2, with C-terminal EYFP) (European robin); test: FRET or BRET; acceptor photobleaching FRET in transiently transfected, fixed QNR/K2 quail neuroretina cells; donor mTurquoise on ErCry4a, acceptor EYFP; confocal microscope, FRET efficiency (Dpost - Dpre)/Dpost

Question: Which results are given for “European robin cryptochrome 4a (ErCry4a), purified recombinant (natural protein)”?
Answer: Kd [1]: 19.8 nM; ka1 (two-state-reaction model) [1]: 221000 M⁻¹ s⁻¹; kd1 (two-state-reaction model) [1]: 0.00438 s⁻¹

Question: How did the mean FRET efficiency [2] turn out when “mTurquoise-ErCry4a (N-terminally tagged ErCry4a) (natural protein)” was run?
Answer: 24.5%
